According to patent publication US20220402983A1 (Janssen / Centocor, published 2022):
Bridges are numbered along the chain shown (N, C = ends). [ ]: non-standard residue; d: D form. The star is where a group is joined. Trp(7-Me) = Cc1cccc2c(C[C@H](N)C(=O)O)c[nH]c12; Ac6c(4,4-F2) = NC1(C(=O)O)CCC(F)(F)CC1; 2Nal = N[C@@H](Cc1ccc2ccccc2c1)C(=O)O; AEF = NCCOc1ccc(C[C@H](N)C(=O)O)cc1; αMeY = C[C@](N)(Cc1ccc(O)cc1)C(=O)O; αMeF = C[C@](N)(Cc1ccccc1)C(=O)O; αMeE = C[C@](N)(CCC(=O)O)C(=O)O; Cit = NC(=O)NCCC[C@H](N)C(=O)O; αMeL = CC(C)C[C@](C)(N)C(=O)O; Pen = CC(C)(S)[C@H](N)C(=O)O; αMeK = C[C@](N)(CCCCN)C(=O)O; Ac6c = NC1(C(=O)O)CCCCC1; Thp = NC1(C(=O)O)CCOCC1; Abu = CC[C@H](N)C(=O)O; Boc = CC(C)(C)OC(=O)*; Aib = CC(C)(N)C(=O)O; Piv = CC(C)(C)C(=O)*; Tfa = O=C(C(F)(F)F)*

T1: human IL-23R (interleukin-23 receptor) (human, UniProt Q5VWK5 24-629)
T1 sequence (looked up): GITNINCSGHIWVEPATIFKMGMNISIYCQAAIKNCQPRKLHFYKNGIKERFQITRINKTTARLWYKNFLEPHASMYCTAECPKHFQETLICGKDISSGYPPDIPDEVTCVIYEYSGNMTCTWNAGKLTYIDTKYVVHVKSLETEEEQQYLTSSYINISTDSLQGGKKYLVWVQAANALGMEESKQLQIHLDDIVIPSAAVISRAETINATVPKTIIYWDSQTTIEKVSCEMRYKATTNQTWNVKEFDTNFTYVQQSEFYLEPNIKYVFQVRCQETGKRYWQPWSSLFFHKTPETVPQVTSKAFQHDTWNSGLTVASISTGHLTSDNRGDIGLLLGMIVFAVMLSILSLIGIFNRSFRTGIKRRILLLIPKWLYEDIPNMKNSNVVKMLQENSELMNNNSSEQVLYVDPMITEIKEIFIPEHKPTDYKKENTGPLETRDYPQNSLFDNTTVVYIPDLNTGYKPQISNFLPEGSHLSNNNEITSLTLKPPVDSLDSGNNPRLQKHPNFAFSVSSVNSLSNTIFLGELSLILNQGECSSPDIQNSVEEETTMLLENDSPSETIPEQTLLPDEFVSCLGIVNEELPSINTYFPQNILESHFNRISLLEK

B1: Compound No. 303 (peptide)
peptide: Ac-[dR][Pen]NT[Trp(7-Me)]K(Ac)[Pen][AEF][2Nal][Ac6c(4,4-F2)]EN[Thp]-NH2
modifications: disulfide 2-7
SMILES: CC(=O)NCCCC[C@@H]1NC(=O)[C@H](Cc2c[nH]c3c(C)cccc23)NC(=O)[C@H]([C@@H](C)O)NC(=O)[C@H](CC(N)=O)NC(=O)[C@@H](NC(=O)[C@@H](CCCNC(=N)N)NC(C)=O)C(C)(C)SSC(C)(C)[C@@H](C(=O)N[C@@H](Cc2ccc(OCCN)cc2)C(=O)N[C@@H](Cc2ccc3ccccc3c2)C(=O)NC2(C(=O)N[C@@H](CCC(=O)O)C(=O)N[C@@H](CC(N)=O)C(=O)NC3(C(N)=O)CCOCC3)CCC(F)(F)CC2)NC1=O
B2: Compound No. 138 (peptide)
peptide: Ac-[Pen]NT[Trp(7-Me)]K(Ac)[Pen][AEF][2Nal][Thp]K(Tfa)N[αMeF]-NH2
modifications: disulfide 1-6
SMILES: CC(=O)NCCCC[C@@H]1NC(=O)[C@H](Cc2c[nH]c3c(C)cccc23)NC(=O)[C@H]([C@@H](C)O)NC(=O)[C@H](CC(N)=O)NC(=O)[C@@H](NC(C)=O)C(C)(C)SSC(C)(C)[C@@H](C(=O)N[C@@H](Cc2ccc(OCCN)cc2)C(=O)N[C@@H](Cc2ccc3ccccc3c2)C(=O)NC2(C(=O)N[C@@H](CCCCNC(=O)C(F)(F)F)C(=O)N[C@@H](CC(N)=O)C(=O)N[C@@](C)(Cc3ccccc3)C(N)=O)CCOCC2)NC1=O
B3: Compound No. 139 (peptide)
peptide: Ac-[Pen]NT[Trp(7-Me)]K(Ac)[Pen][AEF][2Nal][Thp]K(Piv)N[αMeF]-NH2
modifications: disulfide 1-6
SMILES: CC(=O)NCCCC[C@@H]1NC(=O)[C@H](Cc2c[nH]c3c(C)cccc23)NC(=O)[C@H]([C@@H](C)O)NC(=O)[C@H](CC(N)=O)NC(=O)[C@@H](NC(C)=O)C(C)(C)SSC(C)(C)[C@@H](C(=O)N[C@@H](Cc2ccc(OCCN)cc2)C(=O)N[C@@H](Cc2ccc3ccccc3c2)C(=O)NC2(C(=O)N[C@@H](CCCCNC(=O)C(C)(C)C)C(=O)N[C@@H](CC(N)=O)C(=O)N[C@@](C)(Cc3ccccc3)C(N)=O)CCOCC2)NC1=O
B4: Compound No. 202 (peptide)
peptide: Ac-[Pen]NT[Trp(7-Me)][Cit][Pen][AEF][2Nal][αMeK]K(Ac)N[Aib][dY]-NH2
modifications: disulfide 1-6
SMILES: CC(=O)NCCCC[C@H](NC(=O)[C@](C)(CCCCN)NC(=O)[C@H](Cc1ccc2ccccc2c1)NC(=O)[C@H](Cc1ccc(OCCN)cc1)NC(=O)[C@H]1NC(=O)[C@H](CCCNC(N)=O)NC(=O)[C@H](Cc2c[nH]c3c(C)cccc23)NC(=O)[C@H]([C@@H](C)O)NC(=O)[C@H](CC(N)=O)NC(=O)[C@@H](NC(C)=O)C(C)(C)SSC1(C)C)C(=O)N[C@@H](CC(N)=O)C(=O)NC(C)(C)C(=O)N[C@H](Cc1ccc(O)cc1)C(N)=O
B5: Compound No. 140 (peptide)
peptide: Ac-[Pen]NT[Trp(7-Me)]K(Ac)[Pen][AEF][2Nal][Thp]K(Tfa)N[Thp]-NH2
modifications: disulfide 1-6
SMILES: CC(=O)NCCCC[C@@H]1NC(=O)[C@H](Cc2c[nH]c3c(C)cccc23)NC(=O)[C@H]([C@@H](C)O)NC(=O)[C@H](CC(N)=O)NC(=O)[C@@H](NC(C)=O)C(C)(C)SSC(C)(C)[C@@H](C(=O)N[C@@H](Cc2ccc(OCCN)cc2)C(=O)N[C@@H](Cc2ccc3ccccc3c2)C(=O)NC2(C(=O)N[C@@H](CCCCNC(=O)C(F)(F)F)C(=O)N[C@@H](CC(N)=O)C(=O)NC3(C(N)=O)CCOCC3)CCOCC2)NC1=O
B6: Compound No. 305 (peptide)
peptide: H-[dR][Pen]NT[Trp(7-Me)]K(Ac)[Pen][AEF](Boc)[2Nal][Thp]EN[αMeF]-NH2
modifications: disulfide 2-7
SMILES: CC(=O)NCCCC[C@@H]1NC(=O)[C@H](Cc2c[nH]c3c(C)cccc23)NC(=O)[C@H]([C@@H](C)O)NC(=O)[C@H](CC(N)=O)NC(=O)[C@@H](NC(=O)[C@H](N)CCCNC(=N)N)C(C)(C)SSC(C)(C)[C@@H](C(=O)N[C@@H](Cc2ccc(OCCNC(=O)OC(C)(C)C)cc2)C(=O)N[C@@H](Cc2ccc3ccccc3c2)C(=O)NC2(C(=O)N[C@@H](CCC(=O)O)C(=O)N[C@@H](CC(N)=O)C(=O)N[C@@](C)(Cc3ccccc3)C(N)=O)CCOCC2)NC1=O
B7: Compound No. 149 (peptide)
peptide: Ac-[dR][Pen]NT[Trp(7-Me)][Cit][Pen][AEF][2Nal][αMeL]EN[αMeF]-NH2
modifications: disulfide 2-7
SMILES: CC(=O)N[C@H](CCCNC(=N)N)C(=O)N[C@@H]1C(=O)N[C@@H](CC(N)=O)C(=O)N[C@@H]([C@@H](C)O)C(=O)N[C@@H](Cc2c[nH]c3c(C)cccc23)C(=O)N[C@@H](CCCNC(N)=O)C(=O)N[C@H](C(=O)N[C@@H](Cc2ccc(OCCN)cc2)C(=O)N[C@@H](Cc2ccc3ccccc3c2)C(=O)N[C@@](C)(CC(C)C)C(=O)N[C@@H](CCC(=O)O)C(=O)N[C@@H](CC(N)=O)C(=O)N[C@@](C)(Cc2ccccc2)C(N)=O)C(C)(C)SSC1(C)C
B8: Compound No. 150 (peptide)
peptide: Ac-[dR][Pen]NT[Trp(7-Me)]K(Ac)[Pen][AEF][2Nal][Thp][αMeE]N[αMeY]-NH2
modifications: disulfide 2-7
SMILES: CC(=O)NCCCC[C@@H]1NC(=O)[C@H](Cc2c[nH]c3c(C)cccc23)NC(=O)[C@H]([C@@H](C)O)NC(=O)[C@H](CC(N)=O)NC(=O)[C@@H](NC(=O)[C@@H](CCCNC(=N)N)NC(C)=O)C(C)(C)SSC(C)(C)[C@@H](C(=O)N[C@@H](Cc2ccc(OCCN)cc2)C(=O)N[C@@H](Cc2ccc3ccccc3c2)C(=O)NC2(C(=O)N[C@@](C)(CCC(=O)O)C(=O)N[C@@H](CC(N)=O)C(=O)N[C@@](C)(Cc3ccc(O)cc3)C(N)=O)CCOCC2)NC1=O
B9: Compound No. 141 (peptide)
peptide: Ac-[Pen]NT[Trp(7-Me)]K(Ac)[Pen][AEF][2Nal][Thp]K(Piv)N[Thp]-NH2
modifications: disulfide 1-6
SMILES: CC(=O)NCCCC[C@@H]1NC(=O)[C@H](Cc2c[nH]c3c(C)cccc23)NC(=O)[C@H]([C@@H](C)O)NC(=O)[C@H](CC(N)=O)NC(=O)[C@@H](NC(C)=O)C(C)(C)SSC(C)(C)[C@@H](C(=O)N[C@@H](Cc2ccc(OCCN)cc2)C(=O)N[C@@H](Cc2ccc3ccccc3c2)C(=O)NC2(C(=O)N[C@@H](CCCCNC(=O)C(C)(C)C)C(=O)N[C@@H](CC(N)=O)C(=O)NC3(C(N)=O)CCOCC3)CCOCC2)NC1=O
B10: Compound No. 151 (peptide)
peptide: Ac-[Pen]NT[Trp(7-Me)]K(Ac)[Pen][AEF][2Nal][αMeK]K(Ac)N[αMeY]-NH2
modifications: disulfide 1-6
SMILES: CC(=O)NCCCC[C@@H]1NC(=O)[C@H](Cc2c[nH]c3c(C)cccc23)NC(=O)[C@H]([C@@H](C)O)NC(=O)[C@H](CC(N)=O)NC(=O)[C@@H](NC(C)=O)C(C)(C)SSC(C)(C)[C@@H](C(=O)N[C@@H](Cc2ccc(OCCN)cc2)C(=O)N[C@@H](Cc2ccc3ccccc3c2)C(=O)N[C@@](C)(CCCCN)C(=O)N[C@@H](CCCCNC(C)=O)C(=O)N[C@@H](CC(N)=O)C(=O)N[C@@](C)(Cc2ccc(O)cc2)C(N)=O)NC1=O
B11: Compound No. 302 (peptide)
peptide: Ac-[Pen]NT[Trp(7-Me)][Cit][Pen][AEF][2Nal][αMeK]K(Ac)N[Aib]-NH2
modifications: disulfide 1-6
SMILES: CC(=O)NCCCC[C@H](NC(=O)[C@](C)(CCCCN)NC(=O)[C@H](Cc1ccc2ccccc2c1)NC(=O)[C@H](Cc1ccc(OCCN)cc1)NC(=O)[C@H]1NC(=O)[C@H](CCCNC(N)=O)NC(=O)[C@H](Cc2c[nH]c3c(C)cccc23)NC(=O)[C@H]([C@@H](C)O)NC(=O)[C@H](CC(N)=O)NC(=O)[C@@H](NC(C)=O)C(C)(C)SSC1(C)C)C(=O)N[C@@H](CC(N)=O)C(=O)NC(C)(C)C(N)=O

Target: T1, human IL-23R (interleukin-23 receptor)
Test: cell-based or functional assay

Q: B1 was tested. Which “PBMC pSTAT3 IC50 (nM)” value did it give?
A: Its value is 1.3 nM.

Q: For Ac-[dR][Abu]QT[Trp(7-Me)]K(Ac)C[AEF][2Nal][αMeK]K(Ac)N[αMeF]-NH2 (thioether 2-7) [Compound No. 201], which “pStat3 HTRF (nM), IC50, DB cells IL23R pSTAT3 cell assay” value is on record?
A: The value was 12.7 nM.

Q: Ac-[dR][Abu]QTWQC[AEF][2Nal][Ac6c][αMeE]NF[Aib][αMeK]-NH2 (thioether 2-7) [Compound No. 301] was tested. Which “PBMC pSTAT3 IC50 (nM)” value did it give?
A: The value was 24 nM.

Q: With B2 as the binder, how does the “PBMC pSTAT3 IC50 (nM)” value read?
A: The value was 7.6 nM.

Q: B3 was tested. Which “PBMC pSTAT3 IC50 (nM)” value did it give?
A: Its value is 6.6 nM.

Q: B4 was tested. Which “pStat3 HTRF (nM), IC50, DB cells IL23R pSTAT3 cell assay” value did it give?
A: Its value is 0.637 nM.

Q: For PentCO-[dR][Pen]NT[Trp(7-Me)]K(Ac)[Pen][AEF][2Nal][Thp]EN[αMeF]-NH2 (disulfide 2-7) [Compound No. 142], which “PBMC pSTAT3 IC50 (nM)” value is on record?
A: Its value is 4.9 nM.

Q: B5 was tested. Which “PBMC pSTAT3 IC50 (nM)” value did it give?
A: Its value is 2.6 nM.

Q: How did the “PBMC pSTAT3 IC50 (nM)” value turn out when B6 was run?
A: Its value is 17 nM.

Q: How did the “PBMC pSTAT3 IC50 (nM)” value turn out when B7 was run?
A: The value was 2.3 nM.

Q: With B8 as the binder, how does the “PBMC pSTAT3 IC50 (nM)” value read?
A: Its value is 4.7 nM.

Q: How did the “PBMC pSTAT3 IC50 (nM)” value turn out when B9 was run?
A: The value was 3.7 nM.

Q: Which “PBMC pSTAT3 IC50 (nM)” value does the source give for FlagTag-[dR][Pen]NT[Trp(7-Me)]K(Ac)[Pen][AEF][2Nal][Thp]EN[Thp]-NH2 (disulfide 2-7; also: FlagTag sequence not given here) [Compound No. 146] here?
A: Its value is 8.9 nM.

Q: Which “PBMC pSTAT3 IC50 (nM)” value does the source give for B10 here?
A: Its value is 5.7 nM.

Q: Which “PBMC pSTAT3 IC50 (nM)” value does the source give for B11 here?
A: Its value is 7 nM.
